Earlier results as cited in publication PMC9489792.

What was measured:
Asp85 = Asp85 (UniProt position 98, WARYADWLFTT); conditions: not stated (presumably the dark/ground state with protonated Schiff base)
Glu85 = Glu85 (UniProt position 98, WARYAEWLFTT); conditions: not stated (presumably the dark/ground state with protonated Schiff base)

| Substance | pKa (Asp85) | pKa (Glu85) |
| --- | --- | --- |
| Bacteriorhodopsin (BR) (Halobacterium salinarum (organism inferred; the article only says BR / bacteriorhodopsin)) | 3.6 |  |
| Bacteriorhodopsin D85E mutant (BR-D85E) (Halobacterium salinarum (organism inferred; the article only says BR / bacteriorhodopsin); D85E) |  | 6.5 |
